The values that follow come from patent publication US20110014224A1.

The target of the test is HLA-B1501 (human). Briefly: competition with radiolabeled probe peptide for purified HLA, plate capture, cpm.

In the case of AVINTTCNYGQ (modifications not checked) [Mtb8.4 5-15 peptide …], the IC50 (commonly the concentration at which inhibition is half-maximal) worked out at 10 nM.
